This is an account of results in patent publication US9932404B2 (Janssen Biotech, Inc., dated 2018).

The target of assay [1] is full length human TLR3 (human). The assay can be described thus: cell-based or functional assay.
The target in assay [2] is full-length murine TLR3 (mouse). The experiment in a line: cell-based or functional assay.

B1: mAb 8 (antibody, V domains shown)
VH: QVELQQSGPGLVKPSQTLSLTCAISGDSVSSNSAAWGWIRQSPGRGLEWLGIIQTRSKWYNDYAVSVKSRITINPDTSKNQFSLQLNSVTPEDTAVYYCARYSYPFYSIDYWGQGTLVTVSS
VL: DIELTQPPSVSVAPGQTARISCSGDNIGSYYVHWYQQKPGQAPVLVIYEDSERPSGIPERFSGSNSGNTATLTISGTQAEDEADYYCQSYDSQFSFGVFGGGTKLTVL
For B1, the “% inhibition of poly(I:C)-induced NF-κB luciferase reporter” value (“% inhibition” for short) in assay [1] is more than 50%.

B2: mAb 18 (antibody, V domains shown)
VH: QVELQQSGPGLVKPSQTLSLTCAISGDSVSSNSAAWGWIRQSPGRGLEWLGIIQKRSKWYNNYAVSVKSRITINPDTSKNQFSLQLNSVTPEDTAVYYCARYSYPFYSIDYWGQGTLVTVSS
VL: DIELTQPPSVSVAPGQTARISCSGDNIGSYYVHWYQQKPGQAPVLVIYEDSERPSGIPERFSGSNSGNTATLTISGTQAEDEADYYCQSYDSQFSFGVFGGGTKLTVL
Consider B2, for which the “% inhibition” value in assay [1] was more than 50%.

B3: mAb 11 (antibody, V domains shown)
VH: QVELQQSGPGLVKPSQTLSLTCAISGDSVSSNSAAWGWIRQSPGRGLEWLGIIQKRSKWYNNYAVSVKSRITINPDTSKNQFSLQLNSVTPEDTAVYYCARYSYPFYSIDYWGQGTLVTVSS
VL: DIELTQPPSVSVAPGQTARISCSGDNIGSYYVHWYQQKPGQAPVLVIYEDSERPSGIPERFSGSNSGNTATLTISGTQAEDEADYYCSSYDEPNFNVFGGGTKLTVL
B3: in assay [1], the “% inhibition” value is more than 50%.

B4: mAb 10 (antibody, V domains shown)
VH: QVELQQSGPGLVKPSQTLSLTCAISGDSVSSNSAAWGWIRQSPGRGLEWLGIIQKRSKWYNNYAVSVKSRITINPDTSKNQFSLQLNSVTPEDTAVYYCARYSYPFYSIDYWGQGTLVTVSS
VL: DIELTQPPSVSVAPGQTARISCSGDNIGSYYVHWYQQKPGQAPVLVIYEDSERPSGIPERFSGSNSGNTATLTISGTQAEDEADYYCQSYDTPVYSVFGGGTKLTVL
As to B4, the “% inhibition” value in assay [1] is more than 50%.

B5: mAb 9 (antibody, V domains shown)
VH: QVELQQSGPGLVKPSQTLSLTCAISGDSVSSNSAAWGWIRQSPGRGLEWLGIIQIRSKWYNDYALSVKSRITINPDTSKNQFSLQLNSVTPEDTAVYYCARYSYPFYSIDYWGQGTLVTVSS
VL: DIELTQPPSVSVAPGQTARISCSGDNIGSYYVHWYQQKPGQAPVLVIYEDSERPSGIPERFSGSNSGNTATLTISGTQAEDEADYYCQSYDSQFSFGVFGGGTKLTVL
Take B5: the “% inhibition” value in assay [1] is more than 50%.

B6: mAb 12 (antibody, V domains shown)
V domain 1: QVELQQSGPGLVKPSQTLSLTCAISGDSVSSNSAAWGWIRQSPGRGLEWLGIIQKRSKWYNNYAVSVKSRITINPDTSKNQFSLQLNSVTPEDTAVYYCARYSYPFYSIDYWGQGTLVTVSS
V domain 2: DIELQQSGPGLVKPSQTLSLTCAISGDSVSSNSAAWGWIRQSPGRGLEWLGIIQKRSKWYNNYAVSVKSRITINPDTSKNQFSLQLNSVTPEDTAVYYCARYSYPFYSIDYWGQGTLVTVSS
With B6, the “% inhibition” value in assay [1] was more than 50%.

B7: mAb 13 (antibody, V domains shown)
VH: QVELVQSGAEVKKPGESLKISCKGSGYSFTNYWVGWVRQMPGKGLEWMGFIDPSDSYTNYAPSFQGQVTISADKSISTAYLQWSSLKASDTAMYYCARELYQGYMDTFDSWGQGTLVTVSS
VL: DIQMTQSPSSLSASVGDRVTITCRASQSIGLYLAWYQQKPGKAPKLLIYAASSLQSGVPSRFSGSGSGTDFTLTISSLQPEDFATYYCQQGESILSTFGQGTKVEIK
Take B7: the “% inhibition” value in assay [1] is more than 50%.

B8: mAb 19 (antibody, V domains shown)
VH: QVELVQSGAEVKKPGESLKISCKGSGYSFTNYWVGWVRQMPGKGLEWMGFIDPSDSYTNYAPSFQGQVTISADKSISTAYLQWSSLKASDTAMYYCARELYQGYMDTFDSWGQGTLVTVSS
VL: DIQMTQSPSSLSASVGDRVTITCRASQSIGLYLAWYQQKPGKAPKLLIYAASSLQSGVPSRFSGSGSGTDFTLTISSLQPEDFATYYCQQYGSVSITFGQGTKVEIK
B8: the “% inhibition” value in assay [1] is more than 50%.

B9: mAb 14 (antibody, V domains shown)
VH: QVELVQSGAEVKKPGESLKISCKGSGYSFTNYWVGWVRQMPGKGLEWMGFIDPSDSYTNYAPSFQGQVTISADKSISTAYLQWSSLKASDTAMYYCARELYQGYMDTFDSWGQGTLVTVSS
VL: DIQMTQSPSSLSASVGDRVTITCRASQSIGLYLAWYQQKPGKAPKLLIYAASSLQSGVPSRFSGSGSGTDFTLTISSLQPEDFATYYCQQAETVSPTFGQGTKVEIKR
Take B9: the “% inhibition” value in assay [1] is more than 50%.

B10: mAb 5429 (antibody, V domains shown)
VH: EVQLVASGGGLVKPGASLKLSCVASGFTFSDYWMAWVRQTPGKPMEYIGDIKSDGSKVNYAPSLKNRFTISRDNARTTLYLQMSNVRSEDTATYYCNRDIGPDWYFDFWGPGTMVTVSS
VL: DIQMTQSPTSLSASLGETVTIECRASEDIYNGLAWYQQKPGKSPQLLIYDSNSLHTGVPSRFSGRGSGTQYSLRINSLQSEDVASYFCQQYYDYPLTFGSGTKLEIKR
In the case of B10, the “IC50, poly(I:C)-induced ISRE luciferase reporter” value in assay [2] stood at 0.5 mg/L.

B11: mAb 3 (antibody, V domains shown)
VH: QVELQQSGPGLVKPSQTLSLTCAISGDSVSTRSAAWGWIRQSPGRGLEWLGRIHRRSKWYNDYAVSVKSRITINPDTSKNQFSLQLNSVTPEDTAVYYCARHTYPYLSFDVWGQGTLVTVSS
VL: DIELTQPPSVSVAPGQTARISCSGDALGGYFVSWYQQKPGQAPVLVIYDDDNRPSGIPERFSGSNSGNTATLTISGTQAEDEADYYCASYDGDEFTVFGGGTKLTVL
For B11, the “% inhibition” value in assay [1] was more than 50%.

B12: mAb 17 (antibody, V domains shown)
VH: QVELQQSGPGLVKPSQTLSLTCAISGDSVSTRSAAWGWIRQSPGRGLEWLGRIYMRSKWYNDYAVSVKSRITINPDTSKNQFSLQLNSVTPEDTAVYYCARHTYPYLSFDVWGQGTLVTVSS
VL: DIELTQPPSVSVAPGQTARISCSGDALGGYFVSWYQQKPGQAPVLVIYDDDNRPSGIPERFSGSNSGNTATLTISGTQAEDEADYYCASYDGDEFTVFGGGTKLTVL
Turning to B12, in assay [1], the “% inhibition” value was more than 50%.

B13: mAb 4 (antibody, V domains shown)
VH: QVELQQSGPGLVKPSQTLSLTCAISGDSVSTRSAAWGWIRQSPGRGLEWLGKISYRSRWYNDYAVSVKSRITINPDTSKNQFSLQLNSVTPEDTAVYYCARHTYPYLSFDVWGQGTLVTVSS
VL: DIELTQPPSVSVAPGQTARISCSGDALGGYFVSWYQQKPGQAPVLVIYDDDNRPSGIPERFSGSNSGNTATLTISGTQAEDEADYYCASYDGDEFTVFGGGTKLTVL
Regarding B13, the “% inhibition” value in assay [1] was more than 50%.

B14: mAb 7 (antibody, V domains shown)
VH: QVELQQSGPGLVKPSQTLSLTCAISGDSVSTRSAAWGWIRQSPGRGLEWLGRIYMRSKWYNDYAVSVKSRITINPDTSKNQFSLQLNSVTPEDTAVYYCARHTYPYLSFDVWGQGTLVTVSS
VL: DIELTQPPSVSVAPGQTARISCSGDALGGYFVSWYQQKPGQAPVLVIYDDDNRPSGIPERFSGSNSGNTATLTISGTQAEDEADYYCSSYDSDSLTVFGGGTKLTVL
As to B14, the “% inhibition” value in assay [1] is more than 50%.

B15: mAb 6 (antibody, V domains shown)
VH: QVELQQSGPGLVKPSQTLSLTCAISGDSVSTRSAAWGWIRQSPGRGLEWLGRIYMRSKWYNDYAVSVKSRITINPDTSKNQFSLQLNSVTPEDTAVYYCARHTYPYLSFDVWGQGTLVTVSS
VL: DIELTQPPSVSVAPGQTARISCSGDALGGYFVSWYQQKPGQAPVLVIYDDDNRPSGIPERFSGSNSGNTATLTISGTQAEDEADYYCGSYDSNSLTVFGGGTKLTVL
In the case of B15, the “% inhibition” value in assay [1] was more than 50%.

B16: mAb 5 (antibody, V domains shown)
VH: QVELQQSGPGLVKPSQTLSLTCAISGDSVSTRSAAWGWIRQSPGRGLEWLGRIYMRSKWYNDYAVSVKSRITINPDTSKNQFSLQLNSVTPEDTAVYYCARHTYPYLSFDVWGQGTLVTVSS
VL: DIELTQPPSVSVAPGQTARISCSGDALGGYFVSWYQQKPGQAPVLVIYDDDNRPSGIPERFSGSNSGNTATLTISGTQAEDEADYYCQSYDEDSATVFGGGTKLTVL
For the molecule B16, the “% inhibition” value in assay [1] was more than 50%.

B17: mAb 15 (antibody)
heavy: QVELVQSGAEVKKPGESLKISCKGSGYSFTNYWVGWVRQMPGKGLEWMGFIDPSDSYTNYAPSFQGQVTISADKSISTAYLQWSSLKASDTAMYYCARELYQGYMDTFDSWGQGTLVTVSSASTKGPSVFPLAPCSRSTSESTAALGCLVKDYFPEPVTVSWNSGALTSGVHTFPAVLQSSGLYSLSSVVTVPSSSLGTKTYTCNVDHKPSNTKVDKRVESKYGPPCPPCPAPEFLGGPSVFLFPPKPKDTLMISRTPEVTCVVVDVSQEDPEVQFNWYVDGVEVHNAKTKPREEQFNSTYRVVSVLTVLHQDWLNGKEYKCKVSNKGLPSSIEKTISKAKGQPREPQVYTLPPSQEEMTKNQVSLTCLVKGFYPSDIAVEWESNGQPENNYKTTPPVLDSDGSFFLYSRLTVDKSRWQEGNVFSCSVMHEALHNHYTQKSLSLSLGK
light: DIQMTQSPSSLSASVGDRVTITCRASQSIGLYLAWYQQKPGKAPKLLIYAASSLQSGVPSRFSGSGSGTDFTLTISSLQPEDFATYYCQQGNTLSYTFGQGTKVEIKRTVAAPSVFIFPPSDEQLKSGTASVVCLLNNFYPREAKVQWKVDNALQSGNSQESVTEQDSKDSTYSLSSTLTLSKADYEKHKVYACEVTHQGLSSPVTKSFNRGEC
Turning to B17, in assay [2], the “IC50, poly(I:C)-induced ISRE luciferase reporter” value stood at 22 mg/L. Further, in assay [1], the “% inhibition” value was more than 50%.

B18: mAb 2 (antibody, V domains shown)
VH: QVELVQSGAEVKKPGESLKISCKGSGYSFNNYWIGWVRQMPGKGLEWMGIIDPQDSWTNYAPSFQGQVTISADKSISTAYLQWSSLKASDTAMYYCARNIYEFDYWGQGTLVTVSS
VL: DIQMTQSPSSLSASVGDRVTITCRASQGISSWLNWYQQKPGKAPKLLIYGASNLQSGVPSRFSGSGSGTDFTLTISSLQPEDFAVYYCQQYDDFSITFGQGTKVEIK
For the molecule B18, the “% inhibition” value in assay [1] was more than 50%.

B19: mAb 16 (antibody, V domains shown)
VH: QVELVQSGAEVKKPGESLKISCKGSGYSFNNYWIGWVRQMPGKGLEWMGIIDPGDSYTNYAPSFQGQVTISADKSISTAYLQWSSLKASDTAMYYCARNIYEFDYWGQGTLVTVSS
VL: DIQMTQSPSSLSASVGDRVTITCRASQGISSWLNWYQQKPGKAPKLLIYGASNLQSGVPSRFSGSGSGTDFTLTISSLQPEDFAVYYCQQYDDFSITFGQGTKVEIK
As for B19, the “% inhibition” value in assay [1] was more than 50%.

B20: mAb 1 (antibody, V domains shown)
V domain 1: GVELVQSGAEVKKPGESLKISCKGSGYSFTDNWISWVRQAPGKGLEWMGVIDPSDSYTNYAPSFQGQVTISADKSISTAYLQWSSLKASDTAMYYCAREWGIGGMVDIWG
V domain 2: DIVLTQSPATLSLSPGERATLSCRASQYIDISYLAWYQQKPGQAPRLLIYDASSRATGVPARFSGSGSGTDFTLTISSLEPEDFAVYYCQQYYSLSITFGQGTKVEIK
Take B20: the “% inhibition” value in assay [1] was more than 50%.
